Data on 15 molecules can be found in PMC314469, “Protein Interaction Networks by Proteome Peptide Scanning” (PLoS Biology, 2004).

What all share (assay): SPOT array
Assay [1] concerns the target T1, Boi1 SH3 (BOI1_YEAST), P38041.
T1 chain: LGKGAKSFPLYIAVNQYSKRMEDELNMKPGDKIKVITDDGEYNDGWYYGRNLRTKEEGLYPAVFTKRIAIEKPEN

For assay [2], the target named is T2, Boi2 SH3 (BOI2_YEAST), P39969.
T2 chain: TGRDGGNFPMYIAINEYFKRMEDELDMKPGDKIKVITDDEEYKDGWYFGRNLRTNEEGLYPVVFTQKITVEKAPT

Assay [3] addresses T3, Rvs167 SH3 (RV167_YEAST), P39743.
T3 chain: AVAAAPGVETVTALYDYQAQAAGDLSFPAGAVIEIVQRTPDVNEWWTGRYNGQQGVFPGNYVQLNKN

Assay [4] deals with T4, Yfr024 SH3 (LSB3_YEAST), P43603.
T4 chain: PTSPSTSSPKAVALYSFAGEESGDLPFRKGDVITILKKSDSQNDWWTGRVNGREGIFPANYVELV

Assay [5] deals with T5, Yhr016c SH3 (YSC84_YEAST), P32793.
T5 chain: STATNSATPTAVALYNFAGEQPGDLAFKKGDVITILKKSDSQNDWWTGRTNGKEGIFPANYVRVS

Consider QVPPKSPEKSGWLY [YNL257C 304-317], for which the normalised SPOT signal, Boehringer light units (BLU); mean over the file's lines of this peptide in assay [1] is 11.9; in assay [2], 22.9; in assay [3], 23.7; in assay [4], 0; in assay [5], 117.
The corresponding values for REEPPLPKRIRISK [YKL214C 57-70] are 2310, 65.9, 11800, 49100 and 50200.
The like results for QYYPEEPTKPTVKT [YGR019W 6-19] were, in that order, 55.2, 37.2, 6.4, 49.9 and 85.8.
Regarding RGIPARPSKDDVMK [YPL073C 83-96], the normalised SPOT signal, Boehringer light units (BLU); mean over the file's lines of this peptide in assay [1] was found to be 55; in assay [2], 14.7; in assay [3] it was 1080; in assay [4], 7220; in assay [5] it was 880.
The corresponding values for QTSPGQPRKGQNGS [YFR028C 427-440] are 157, 22.6, 64, 118 and 177.
As to RSSPWSPSRSHGAV [YLR169W 91-104], the normalised SPOT signal, Boehringer light units (BLU); mean over the file's lines of this peptide came out at 147 in assay [1]; 92.9 in assay [2]; 117 in assay [3]; 2360 in assay [4]; 1090 in assay [5].
The like results for RDKPSEPERTKDGS [YJL184W 49-62] were, in that order, 74.9, 27.8, 24.1, 112 and 120.
Consider QSTPTPPAKRLFLI [YKL165C 41-54], for which the normalised SPOT signal, Boehringer light units (BLU); mean over the file's lines of this peptide in assay [1] was found to be 56.9; in assay [2], 48.8; in assay [3], 35.4; in assay [4] it was 1420; in assay [5] it was 146.
The like results for RAPPPVPKKPSSRI [YIR003W 387-400] were, in that order, 129, 42, 29.1, 28900 and 501.
Turning to QTYPAQPPKIGNAF [YMR016C 219-232], the normalised SPOT signal, Boehringer light units (BLU); mean over the file's lines of this peptide in assay [1] was 42.7; in assay [2], 35.1; in assay [3] it was 33.9; in assay [4], 117; in assay [5], 263.
Turning to RFNPAIPLRIYLKT [YLR073C 15-28], the normalised SPOT signal, Boehringer light units (BLU); mean over the file's lines of this peptide in assay [1] was 66.6; in assay [2], 38.4; in assay [3], 116; in assay [4] it was 3040; in assay [5], 846.
As for RAVPILPPRNNVEP [YBR108W 543-556], the normalised SPOT signal, Boehringer light units (BLU); mean over the file's lines of this peptide is 49.7 in assay [1]; 77 in assay [2]; 59500 in assay [3]; 38300 in assay [4]; 33600 in assay [5].
For the molecule RFDPKSPTKRSIAI [YMR129W 524-537], the normalised SPOT signal, Boehringer light units (BLU); mean over the file's lines of this peptide in assay [1] was 129; in assay [2] it was 62; in assay [3] it was 40; in assay [4], 321; in assay [5] it was 71.9.
The like results for RGPPPLPPRANVQP [YLR144C 22-35] were, in that order, 3000, 14.3, 18300, 25900 and 33400.
The like results for QYIPPPPPKYINSK [YDR207C 482-495] were, in that order, 122, 45.9, 112, 393 and 81.6.
